How the values were obtained:
[1] = molecular target: thrombin (UniProt P00734+P00734); test: FP
[2] = molecular target: T1, FOXM1 (UniProt Q08050); settings: PS; cited from earlier work
T1 sequence: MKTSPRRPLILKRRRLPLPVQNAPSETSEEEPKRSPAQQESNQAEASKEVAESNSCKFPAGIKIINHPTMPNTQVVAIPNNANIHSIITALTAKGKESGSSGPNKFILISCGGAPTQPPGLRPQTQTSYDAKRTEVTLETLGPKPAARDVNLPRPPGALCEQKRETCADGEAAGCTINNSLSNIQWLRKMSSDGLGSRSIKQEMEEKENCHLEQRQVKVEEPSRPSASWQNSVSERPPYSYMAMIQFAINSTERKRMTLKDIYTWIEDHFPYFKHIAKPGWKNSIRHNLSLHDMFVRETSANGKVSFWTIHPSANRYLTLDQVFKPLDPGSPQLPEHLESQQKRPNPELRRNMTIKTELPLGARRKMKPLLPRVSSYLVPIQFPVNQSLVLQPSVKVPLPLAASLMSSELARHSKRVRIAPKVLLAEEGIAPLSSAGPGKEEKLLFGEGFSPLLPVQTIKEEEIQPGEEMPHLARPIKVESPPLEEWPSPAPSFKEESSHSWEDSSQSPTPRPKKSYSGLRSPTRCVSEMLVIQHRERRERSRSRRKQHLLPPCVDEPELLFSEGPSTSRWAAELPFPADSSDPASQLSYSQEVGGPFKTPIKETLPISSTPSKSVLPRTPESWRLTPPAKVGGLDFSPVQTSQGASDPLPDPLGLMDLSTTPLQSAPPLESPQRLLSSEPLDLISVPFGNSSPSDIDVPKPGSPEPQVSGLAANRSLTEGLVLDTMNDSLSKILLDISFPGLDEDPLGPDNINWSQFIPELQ

For GGTTGGTGTGGTTGG [TBA(3)-2b], which Kd ([1]; T3 replaced by 5-ethynyl-dU clicked to inactivated N-acyl sulfonamide biotin warhead 2b) is on record?
The Kd was 395 nM.

Which Kd ([1]; T9 replaced by 5-ethynyl-dU clicked to inactivated N-acyl sulfonamide biotin warhead 2b) does the source give for GGTTGGTGTGGTTGG [TBA(9)-2b] here?
The Kd was 520 nM.

For “TCACTTCACACCGCATCTCTACGTCCGGTTGCGCTTTCCTTT [FBA]”, which Kd [2] is on record?
Its Kd is 65 nM.

Reference: US20240255495
